Patent US20200131227A1, “POLYPEPTIDE WITH TUMOUR BINDING ACTIVITY” (RUPRECHT-KARLS-UNIVERSITÄT HEIDELBERG, priority 2017, published 2020)
Where a SMILES comes first, the peptide text is derived from it. Bridges are numbered along the chain shown (N, C = ends).

Key:
carcinoma cell lines = assay: In vitro binding of radiolabeled peptides to several carcinoma cell lines; type: cell-based, human; conditions: HNO97 and UM-UC-5 cells, ^125I-labeled, 60 min, versus SFPF-10
How it was run: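 Cells seeded 48 h were incubated with ^125I-labeled peptide in serum-free medium for 10 or 60 min, alone or with unlabeled peptide (10^−4 to 10^−11 M); HNO97 kinetics, efflux and internalization (37° C and 4° C, acid strip) used ^177Lu-DOTA-SFITGv6. Gamma counting gave % applied dose per 10^6 cells.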

[1] = Serum stability assay (radio-HPLC); type: in vitro ADME, human
Procedure: Five MBq of the purified ^131I-radiolabeled peptide was incubated in 300 μL human serum at 37° C. After different time intervals (15 min to 24 hours) 20 μL serum was precipitated with 40 μL acetonitrile. The stability of the labeled peptide in the supernatant was monitored by radio-HPLC at selected time points using a chromolith performance RP18ec column (3 mm×100 mm) equipped with a gamma detector (Packard COBRA™ Auto-Gamma, GMI). Separation condition was a gradient of 0% to 60% aqueous acetonitrile supplemented with 0.1% TFA over 10 min with a flow rate of 2 mL/min.

[2] = Biodistribution, HNO97 xenografts; conditions: Balb/c nude, mouse, iv, 1 MBq, total radioactivity; for tissue uptake: in vivo

## CSCC[C@@H]1NC(=O)[C@H](CC(C)C)NC(=O)[C@H](CC(=O)O)NC(=O)CNC(=O)[C@H](CCCNC(=N)N)NC(=O)[C@H](Cc2ccccc2)NC(=O)[C@H]([C@@H](C)O)NC(=O)[C@@H](NC(=O)[C@H](CCCNC(=N)N)NC(=O)CN)CSSC[C@@H](C(=O)N[C@@H](Cc2ccc(O)cc2)C(=O)N2CCC[C@H]2C(=O)N[C@@H](CC(=O)O)C(=O)O)NC(=O)[C@H](CC(C)C)NC(=O)[C@H](CCC(N)=O)NC1=O [SFITGv6, NH2-G-R-C1-T-F-R-G-D-L-M-Q-L-C1-Y-P-D-COOH] (H-GRCTFRGDLMQLCYPD-OH; disulfide 3-13)
Carcinoma cell lines
  binding after substitution of lysine (K) to leucine (L) in FRGDKMQL: substantially increased the binding
[1]
  proteolytic stability in human serum: outstanding stability in human serum over a period of 24 hours
[2]; activity in the blood
  tissue uptake: < 1 %ID/g
[2]; uptake in the kidneys, hardly any clearance
  tissue uptake: ~42 %ID/g
[2]
  tissue uptake at 0.5 h: > 6 %ID/g
  tissue uptake at 6 h: 2.4 %ID/g
